The target of experiment [1] is Recombinant Protein A (SpA) (staphylococcal (species not stated)) (UniProt P38507). Put plainly: ELISA; competition: wells coated with mKate-IgGBP or SpA; 1:4000 dIgG-HRP co-incubated with increasing concentrations of unlabeled IgG, 1 hr at room temperature, 3% BSA in PBS-T; IC50 from a one-site LogIC50 fit.
Experiment [2] deals with Human IgG1 (Avastin, bevacizumab) (human).
Experiment [3] has the same target. Put plainly: SPR; pH 6. On the technique in general: Surface plasmon resonance follows binding to a sensor surface in real time, without labels.
The target in experiment [4] is hIgG1-TAMRA (labeled human IgG1) (human). In words: flow cytometry on cells; same competition experiment as a5 (1 µM hIgG1-TAMRA, MDCK hFcRn-EYFP/hβ2m cells, 1 hr at 37°C, pH 6); pair of the soluble competitor mKate-IgGBP with the labeled hIgG1 that it binds.
The target in experiment [5] is Human IgG1 (Avastin, bevacizumab) (human). The source holds these as a separate data set.
Experiment [6] has the same target. Put plainly: SPR; pH 7.4.
Experiment [7] addresses mKate-IgGBP (monomeric Katushka modified at its C-terminus with the IgG-Fc binding peptide). Put plainly: ELISA; competition: wells coated with mKate-IgGBP or SpA; 1:4000 dIgG-HRP co-incubated with increasing concentrations of unlabeled IgG, 1 hr at room temperature, 3% BSA in PBS-T; IC50 from a one-site LogIC50 fit. Background: An ELISA detects its analyte on a solid surface through an enzyme-linked reagent.

Experiment [8] deals with human neonatal Fc receptor hFcRn-EYFP/hβ2m on MDCK cells (human) (UniProt P55899). Put plainly: flow cytometry on cells; competition: MDCK hFcRn-EYFP/hβ2m cells with 1 µM hIgG1-TAMRA and increasing unlabeled competitor, 1 hr at 37°C, pH 6 (HBSS, 1% ovalbumin, 50 mM MES); read-out is % hIgG1 accumulation (binding and FcRn-dependent endocytosis); pairs with the receptor on cells. On the technique in general: In flow cytometry, cells or beads pass a laser one at a time.
Sequence of UniProt P55899 (P55899 24-365, chain 1 of 2): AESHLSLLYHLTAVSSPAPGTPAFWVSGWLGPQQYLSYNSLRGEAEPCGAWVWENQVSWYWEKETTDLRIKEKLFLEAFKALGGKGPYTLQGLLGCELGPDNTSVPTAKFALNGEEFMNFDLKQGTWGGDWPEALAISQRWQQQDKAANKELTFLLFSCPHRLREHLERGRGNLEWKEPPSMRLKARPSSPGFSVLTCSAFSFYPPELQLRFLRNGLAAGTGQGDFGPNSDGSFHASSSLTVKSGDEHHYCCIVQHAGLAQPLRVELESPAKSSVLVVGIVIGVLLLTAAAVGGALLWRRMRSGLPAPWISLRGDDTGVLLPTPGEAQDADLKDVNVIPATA
Sequence of UniProt P55899 (P61769 21-119, chain 2 of 2, further chain): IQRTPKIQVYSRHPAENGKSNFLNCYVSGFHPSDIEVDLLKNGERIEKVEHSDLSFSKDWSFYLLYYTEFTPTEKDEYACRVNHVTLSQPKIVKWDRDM

With “Human IgG1 (Avastin, bevacizumab) (antibody)”, in experiment [1], the IC50 stood at 22 nM.
In experiment [2], “mKate-IgGBP (monomeric Katushka modified at its C-terminus with the IgG-Fc binding peptide) (designed binder)” yielded a fold extension of the plasma half-life of mKate-IgGBP co-dosed 1:1 mol with labeled hIgG1 in hFcRn Tg mice, against mKate-IgGBP dosed without hIgG1 of 16 fold. For the same molecule, in experiment [3], the Kd came out at 19 nM, the koff was 0.0053 s⁻¹ and the kon was 270000 M⁻¹ s⁻¹. Further, the half-inhibitory concentration (IC50) in experiment [4] was determined as 700 nM. For the same molecule, the plasma half-life of mKate-IgGBP (10 mg/kg i.v.) in hFcRn Tg mice pre-dosed with 500 mg/kg hIgG1 in experiment [5] came to 8 h. Further, in experiment [6], the Kd stood at 40 nM, the koff came to 0.0042 s⁻¹ and the kon came to 110000 M⁻¹ s⁻¹.
Regarding “mouse IgG2a (CI.18 isotype control) (antibody)”, in experiment [1], the IC50 worked out at 61 nM.
For “mouse IgG2b (MPC-11 isotype control) (antibody)”, the half-inhibitory concentration (IC50) in experiment [1] came out at 54 nM.

B1: Human IgG1 (Avastin, bevacizumab) (antibody, V domains shown)
VH: EVQLVESGGGLVQPGGSLRLSCAASGYTFTNYGMNWVRQAPGKGLEWVGWINTYTGEPTYAADFKRRFTFSLDTSKSTAYLQMNSLRAEDTAVYYCAKYPHYYGSSHWYFDVWGQGTLVTVSS
VL: DIQMTQSPSSLSASVGDRVTITCSASQDISNYLNWYQQKPGKAPKVLIYFTSSLHSGVPSRFSGSGSGTDFTLTISSLQPEDFATYYCQQYSTVPWTFGQGTKVEIK
Turning to B1, the IC50 was 2.4 nM in experiment [7] and 2800 nM in experiment [8].

One may read the IC50 as the point on the concentration scale where inhibition reaches its midpoint. Usually Kd stands for the constant that tells how readily two partners part at equilibrium. The low end stands for a tighter complex, the high end for a looser complex. For orientation: koff means the first-order rate constant of dissociation. In general, kon refers to a measure of how fast the partners come together. A higher kon goes with fast association.

Values taken from PMC4109916.
